The values that follow come from US20260242483A1.

The target in test [1] is human BTN3A as expressed on human cells (PBMC, Daudi, tumour cell lines, HUVEC, HEK293T WT) (human). The experiment in a line: cell-based or functional assay.
The target is the same in test [2]. The experiment in a line: flow cytometry on human PBMCs. A general note: Flow cytometry measures light scatter and fluorescence of single cells or particles in a stream.
The target in test [3] is cynomolgus BTN3A as expressed on cynomolgus PBMCs (cynomolgus monkey (Macaca fascicularis)). Kind of test: flow cytometry on cynomolgus PBMCs.
In test [4] the target is human BTN3A as expressed on human cells (PBMC, Daudi, tumour cell lines, HUVEC, HEK293T WT) (human). The experiment in a line: flow cytometry on Daudi lymphoma cells.

B1: Chimeric 7.2 (VH0/Vκ0) (antibody, V domains shown)
VH: QVQLQQSGAELVKPGASVKLSCKASGYIFTRYYMYWVKQRPGQGLEWIGEINPNNGGTKFNEKFKNKATLTVDKFSSTAYMQLRSLTSEDSAVYYCSREDDYDGTPFAMDYWGQGTSVTVSS
VL: DIQMNQSPSSLSASLGDTITITCHASQNINVWLSWYQQKPGNIPKLLIYKASNLHTGVPSRFTGSGSGTGFTLTISSLQPEDIATYYCQQGQTYPYTFGGGTKLEIK
In test [1], B1 registered a Functional assay (AML resistant) (γδT cell-based, EC50, µg/mL) of 0.42 µg/mL; a Functional assay (AML sensitive) (γδT cell-based, EC50, µg/mL) of 0.12 µg/mL; a Functional assay (Daudi) (γδT cell-based, EC50, µg/mL) of 0.02 µg/mL. This molecule gave an EC50 in test [2] of 3.6 µg/mL. The half-maximal effective concentration (EC50) in test [3] amounted to 7.75 µg/mL. The concentration giving a half-maximal response (EC50) in test [4] is 1.44 µg/mL.

The EC50 is the concentration at which the effect is half-maximal.
